# From US20220280543A1, “DDX17 AND NLRC4 TARGETING FOR INFLAMMATORY DISEASES” (University of Virginia Patent Foundation, priority 2019, published 2022)
# “Also recorded” adds a separate entry of the source.
# How the values were obtained:
# NLRC4 inflammasome = assay: Flagellin-induced caspase-1 activation in wild type BMDM pre-treated with NRTIs, immunoblot; format: cell-based, mouse; conditions: pre-treated 1 hour, flagellin 3 μg/ml (FIG. 31)
# Protocol: FIG. 27. NRTI block Flagellin induced NLRC4 inflammasome in BMDM. Wild type BMDM cells were pre-treated with exemplary NRTIs (D4T, 3TC) at 100 μM for 1 hour, and then stimulated with flagellin transfection (3 μg/ml). Supernatant and cell lysate were collected for Caspase-1 detection. […] The caspase-1 (p20) bands are indicated with black arrow.
# FIG. 28. NRTI (3TC) blocks flagellin-induced NLRC4 inflammasome in a dose dependent manner. Wild type BMDM cell were pre-treated with indicated dose of NRTI (3TC) for 1 hour, and then stimulated with Flagellin transfection (3 μg/ml). Supernatants were collected for Caspase-1 detection. […] The caspase-1 (p20) bands are indicated with black arrow.
# FIG. 31. Modified NRTIs (K8, K9) block flagellin-induced NLRC4 inflammasome in BMDM. Wild type BMDM cell were pre-treated with regular NRTI (D4T, 3TC), the modified NRTIs 3-Methyl-3TC (K9) or 2-Ethyl-AZT (K8), or NLRP3 inhibitors (MCC950, CY-09) for 1 hour, and then stimulated with flagellin transfection (3 μg/ml). Supernatants were collected for secreted caspase-1 detection. […] The caspase-1 (p20) bands are indicated with black arrow.
# Nucleoside reverse transcriptase inhibitors (NRTIs) are HIV therapeutics that inhibit retrovirus replication. We have previously shown that NRTIs inhibit P2X7-mediated NLRP3 inflammasome activation by an endogenous retroelement Alu RNA (SEQ ID NO: 86). Activation of NLRP3 inflammasome by Alu RNA (SEQ ID NO: 86) causes the death of retinal pigment epithelium (RPE) in geographic atrophy, a severe form of AMD. […] Currently, multiple NLRP3 inflammasome inhibitors such as MCC950, CY09 are available however, there are no inhibitors of NLRC4. So, a need exists to develop inhibitors of NLRC4 inflammasome to study NLRC4 driven diseases. Here, we show for the first time that NRTIs block flagellin induced NLRC4 inflammasome. We pretreated flagellin transfected BMDMs with DT4 and 3TC to examine caspase-1 activation.
# NLRC4 oligomerization is another hallmark of inflammasome activation where high-molecular mass NLRC4 protein complexes are assembled. […]
# caspase-1 = assay: Alu RNA induced caspase-1 activation in THP1 cells after siRNA knockdown; format: cell-based, human; conditions: siRNA knockdown (FIGS. 11A, 11B)
# From the text: FIGS. 11A and 11B. Ddx17 involved in Alu RNA (SEQ ID NO: 86) induced inflammasome independent of its microprocessor function. DDX17 is a component of microprocessor complexes with DDX5 and Drosha. To test whether the microprocessor function of DDX17 is required for Alu RNA (SEQ ID NO: 86) induced inflammasome, we measured caspase-1 activation in THP cells with DDX5 or Drosha knockdown (siRNA for DDX5: GGAAAUUACAGUUAGAGGU; SEQ ID NO: 89); siRNA for Drosha: GACAAGUUGAUAGGAUAUA; SEQ ID NO: 90). FIG. 11A. siRNA mediated Ddx17 knockdown, but not Ddx5 in THP1 cells, blocked Alu RNA (SEQ ID NO: 86) induced caspase-1 activation. […] The caspase-1 (p20) bands were indicated with black arrows.
# We next examined whether DDX5 or DDX17 was the sensor for Alu RNA (SEQ ID NO: 86) induced NLRC4 inflammasome activation. Due to the high degree of similarity in the sequences of DDX5 and DDX17, we designed 3 siRNAs targeting DDX5 alone, DDX17 alone, or both DDX5 and DDX17, and confirmed their target efficiency in THP1 cells (FIG. 11A). […] Therefore, we tested whether Drosha is also involved in SINE RNA-DDX17-NLRC4 axis. […] These observations implicate that DDX17 mediated SINE RNA induced NLRC4 inflammasome is independent of microprocessor function.
# [1] = target: Ddx17 (bait of the Ddx complex, Table 3) (UniProt Q92841); assay: IP tandem mass spectrometry of the Ddx17 complex, mock-treated
# [2] = target: Ddx17 (bait of the Ddx complex, Table 3) (UniProt Q92841); assay: IP tandem mass spectrometry of the Ddx17 complex, Alu RNA-treated
# [3] = system: NLRC4 phosphorylation (site S533); assay: SINE RNA induced NLRC4 phosphorylation (S533) in BMDM, Western blot; format: cell-based, mouse; conditions: SINE RNAs each at 100 pmol, polyI:C 10 μg/ml (FIG. 1)
# Protocol: FIG. 1. SINE RNA induced NLRC4 phosphorylation (site S533) in mice macrophage (BMDM). Mouse bone marrow derived macrophage (BMDM) were treated with SINE RNAs (Alu (SEQ ID NO: 86), B1 (SEQ ID NO: 87), and B2 (SEQ ID NO: 88), each at 100 pmol), and polyI:C (10 μg/ml). Phosphorylated Nlrc4 (p-Nlrc4) and total Nlrc4 (t-Nlrc4) were detected by Western blot. Actin is provided as a loading control. The p-NLRC4 bands were indicated by black arrow.
# Previous studies have shown that NLRC4 inflammasome activation in response to Salmonella exposure requires two steps for its activation, phosphorylation on Ser533 residue of NLRC4 and NAIP mediated oligomerization of NLRC4. […] Moreover, treatment with SINE RNAs induced caspase-1 p20 cleavage, indicative of inflammasome activation (FIG. 2). For the subsequent experiments in this study, we used Alu RNA (SEQ ID NO: 86) as the stimulus to activate the NLRC4 inflammasome. To date, two kinases are reported to phosphorylate NLRC4 at S533: protein kinase C delta (PKCδ) and leucine rich repeat-containing kinase-2 (LRRK2). To explore the roles of these kinases in Alu RNA (SEQ ID NO: 86) induced NLRC4 phosphorylation, we pretreated BMDMs with pharmacological inhibitors of LRRK2 (GSK2578215A, GSK) and PKCδ (Rottlerin, Rot) respectively.
# ASC specks = assay: SINE RNA induced ASC specks in BMDM, immunofluorescence; format: cell-based, mouse; conditions: BMDMs, transfection vs Mock (FIG. 3A)
# Protocol: FIGS. 3A and 3B. SINE RNA-induced ASC oligomerization is dependent on NLRC4 (BMDM). FIG. 3A. Immunofluorescence images of endogenous ASC specks and NLRC4 puncta in BMDMs after transfected with Alu (SEQ ID NO: 86) or B2 (SEQ ID NO: 88) RNA or transfection reagents only (Mock). […] Moreover, NLRC4 proteins assembled as puncta, and co-resided with ASC specks. FIG. 3B. ASC oligomerizations were evaluated in wild-type and Nlrc4^−/− BMDMs through cross-linking and western blot. […] The bands of oligomeric ASC protein were indicated by black arrow.
# The activated NLRC4 inflammasome undergoes oligomerization by assembling into high-molecular mass multiprotein complexes. We first investigated in situ assembling of NLRC4 and apoptosis speck (ASC) like protein complexes in response to SINE RNA treatment of BMDMs. Immunofluorescence studies show increased NLRC4 and ASC specks in SINE RNA-treated BMDMs compared to mock-treated cells (FIG. 3A). To assess NLRC4 inflammasome assembly, WT and NLRC4 KO BMDM cells were treated with Alu RNA (SEQ ID NO: 86). Disuccinimidyl suberate (DSS) cross-linked lysates were resolved using denaturing SDS-PAGE to detect ASC oligomers and cell lysates were resolved using native polyacrylamide gel electrophoresis (NATIVE-PAGE) to detect NLRC4 oligomerization. […] NLRC4/ASC oligomerization is essential for the cleavage of pro-caspase-1 into its active form p20 and IL-1β release.
# Ddx17 (bait of the Ddx complex, Table 3), sequence (Q92841 whole entry, one chain of several): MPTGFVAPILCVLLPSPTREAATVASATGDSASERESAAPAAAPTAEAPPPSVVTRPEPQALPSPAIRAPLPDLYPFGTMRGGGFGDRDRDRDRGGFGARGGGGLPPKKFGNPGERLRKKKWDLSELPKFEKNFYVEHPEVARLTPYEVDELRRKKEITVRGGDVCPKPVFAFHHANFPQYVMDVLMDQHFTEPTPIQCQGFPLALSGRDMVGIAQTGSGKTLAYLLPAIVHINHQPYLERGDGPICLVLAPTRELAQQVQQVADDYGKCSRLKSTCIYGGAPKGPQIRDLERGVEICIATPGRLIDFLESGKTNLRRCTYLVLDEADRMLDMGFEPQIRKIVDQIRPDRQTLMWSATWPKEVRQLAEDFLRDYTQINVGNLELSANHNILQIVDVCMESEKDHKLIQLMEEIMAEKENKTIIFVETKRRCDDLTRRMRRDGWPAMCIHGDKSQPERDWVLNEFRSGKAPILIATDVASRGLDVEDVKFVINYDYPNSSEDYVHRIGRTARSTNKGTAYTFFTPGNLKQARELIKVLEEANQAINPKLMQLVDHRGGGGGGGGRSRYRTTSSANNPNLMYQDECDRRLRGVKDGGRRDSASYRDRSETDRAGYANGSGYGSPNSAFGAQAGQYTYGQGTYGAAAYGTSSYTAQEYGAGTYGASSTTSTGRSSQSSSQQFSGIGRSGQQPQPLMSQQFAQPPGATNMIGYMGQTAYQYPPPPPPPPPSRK
Molecule,Coverage (%) [1],Peptides [1],Coverage (%) [2],Peptides [2],further results
3-Methyl-3TC [K9],,,,,"flagellin induced caspase-1 activation, modified NRTIs (NLRC4 inflammasome): blocked; also recorded: inhibited"
2-Ethyl-AZT [K8],,,,,"flagellin induced caspase-1 activation, modified NRTIs (NLRC4 inflammasome): blocked; also recorded: inhibited"
"siDrosha: siRNA for Drosha: GACAAGUUGAUAGGAUAUA; SEQ ID NO: 90 (listed as RNA, chemistry not given here)",,,,,caspase-1 cleavage in Alu RNA treated THP1 cells (caspase-1): did not
DDX5 siRNA: siRNA for DDX5: GGAAAUUACAGUUAGAGGU; SEQ ID NO: 89 (chemistry not fully specified),,,,,caspase-1 cleavage in Alu RNA treated THP1 cells (caspase-1): did not do so
Nlrp1 (Table 3) (from UniProt Q9C000 1-1473) (receptor),0%,0 peptides,6.6%,2 peptides,
Nlrp3 (Table 3) (from UniProt Q96P20 1-1036) (receptor),0%,0 peptides,3.7%,3 peptides,
Ddx5 (Table 3) (from UniProt P17844 1-614),,10 peptides,,,
Nlrp8 (Table 3) (from UniProt Q86W28 1-1048) (receptor),0%,0 peptides,2.9%,2 peptides,
Ddx5 (Table 3) (from UniProt P17844 1-614) (enzyme),17%,,25%,15 peptides,
poly(I:C),,,,,NLRC4 phosphorylation on S533 in BMDMs [3]: did not induce
"B2: mouse SINE B2 RNA, SEQ ID NO: 88 (nucleic acid, Artificially synthesized B2 RNA) GGGCUGGAGAGAUGGCUCAGUGGUUAAGAGCACCUGACUGCUCUUCCAGAGGUCCUGAGUUCAAUUCCCAGCAACCACAUGGUGGCUCACAACCAUCUGUAAUGAGAUCUGAUGCCCUCUUCUGGUGUGUCUGAAGACAGCUACAGUGUACUUACAUAUAAUAAAUAAAUAAAUAAAUAAAUCUUAAAAAAAAAAAAAAGAAAGAAAAA",,,,,formation of ASC specks (ASC specks): induced the formation of ASC specks; NLRC4 phosphorylation on S533 in BMDMs [3]: induced
